Publication PMC5177888, “An Adaptation To Life In Acid Through A Novel Mevalonate Pathway” (Scientific Reports, 2016)

B1: mevalonate 3,5-bisphosphate decarboxylase (Ta0893) from Thermoplasma acidophilum, recombinant, full length, co-expressed with GroEL/GroES (enzyme, UniProt Q9HJS1 1-405, looked up)
chain: MDTAGMEHSVSWISSNSDELILRSWISSRMDIAELHRAGDDIKEMMKSEGYYSEPSKYEAELSDGNITFAYSYPIKAFEKFLGYYDRENRIAFNPSISMRTDFSFCLAACRYRKNGKTDTVVLDGYADNKYYKKAKFALDKFRSEYSINGSFDFYIKRYRRYQKAKGLSESSAVAAAVSRALISNVFGDDAAKDDIFVSRYARLVSGSGTRAAHDGISMWLSYPGMDSRDCVAFKVGKSNENLNYGVFPKYSDVATDNAHSIAVNSVFYGTWVSEKFSNVKRLISDHFDINDLLKIGENDMLRLNSILMSGGLIIQTPDSLRILKEILKFKSKNEGFYFTADTGPSIAIFSFDRSLIDEFRENVNDEYIEGSYDFKGYNNRMRDFIREAQEYFTQTPGEDEEDRL
notes: Ta0893, mevalonate 3,5-bisphosphate decarboxylase, Thermoplasma acidophilum; NCBI WP_010901303.1; full-length protein; predicted monomer 46.3 kDa; gene codon optimized and synthesized, cloned in pET28a(+) between NdeI and XhoI; The Ni-NTA eluate may still hold E. coli proteins such as the co-expressed chaperones; also called MBD; recombinant Ta0893; source: E. coli BL21(DE3) Gold, co-expressed …
B2: mevalonate 3,5-bisphosphate decarboxylase (Ta0893), native, in Thermoplasma acidophilum lysate (enzyme, UniProt Q9HJS1 1-405, looked up)
chain: B1 chain
notes: Ta0893, mevalonate 3,5-bisphosphate decarboxylase, Thermoplasma acidophilum; NCBI WP_010901303.1; predicted monomer 46.3 kDa; followed as MBD activity in the lysate; also called MBD; native MBD; source: endogenous, T. acidophilum cell-free lysate

What was measured:
[1] = target: the molecule itself; assay: SEC; recombinant Ta0893 (co-expressed with GroEL/ES) mixed with Biorad gel filtration standard, Superdex S200 10/300 GL, 50 mM sodium phosphate pH 6.5, 500 mM NaCl; fractions assayed for MBD activity; apparent molecular weight from the activity profile
[2] = target: the molecule itself; assay: SEC; T. acidophilum cell-free lysate mixed with Biorad gel filtration standard, Superdex S200 10/300 GL, 50 mM sodium phosphate pH 6.5, 500 mM NaCl; fractions assayed for MBD activity; apparent molecular weight from the activity profile

| Protein | stoichiometry N [1] | stoichiometry N [2] |
| --- | --- | --- |
| B1 | 2 | – |
| B2 | – | 2 |
